According to patent publication US9958461B2, “Detection of protein to protein interactions” (THE GOVERNING COUNCIL OF THE UNIVERSITY OF TORONTO, priority 2013, dated 2018):

Tests used:
EGFR-Wt [1] = biological target: T1, EGFR-Wt (Homo sapiens, UniProt P00533); experiment: MaMTH EGFR-interactor screen, lentiviral preys against EGFR-wildtype bait (interaction score); format: cell-based; details: MaMTH interaction score of prey with EGFR-Wt bait, mean
T1 construct: with the advantage of testing full-length integral membrane proteins; (GGGGS)2 linker-Cub (human ubiquitin aa 35-76)-GAL4(1-147)-mNFkB(364-550) (C); expressed in transfected cells
Summary of the method: (§1)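 5×GAL4UAS-luciferase HEK293T reporter cells were lentivirally infected with preys (MOI ~0.3-0.4) and puromycin-selected ≥48 h. They were then transfected in triplicate with the EGFR bait, and luciferase was read 24 h later. Score is fold-change over averaged negative-control preys; >1 denotes interaction.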

EGFR-Wt [2] = experiment: as above; format: cell-based, human; details: ratio of EGFR-Wt mean to EGFR-L858R mean interaction score
Summary of the method: as §1

EGFR-L858R = biological target: T2, EGFR-L858R (Homo sapiens, UniProt P00533, L858R); experiment: MaMTH EGFR-interactor screen, lentiviral preys against EGFR-L858R bait (interaction score); format: cell-based; details: MaMTH interaction score of prey with EGFR-L858R bait
T2 construct: with the advantage of testing full-length integral membrane proteins; (GGGGS)2 linker-Cub (human ubiquitin aa 35-76)-GAL4(1-147)-mNFkB(364-550) (C); expressed in transfected cells
Summary of the method: as §1

| Molecule | EGFR-Wt mean (EGFR-Wt [1]) | Wt/L858R (EGFR-Wt [2]) | EGFR-L858R mean (EGFR-L858R) |
| --- | --- | --- | --- |
| HSPA4 (protein, UniProt P34932 1-840, looked up) Heat shock 70 kDa protein 4: MSVVGIDLGFQSCYVAVARAGGIETIANEYSDRCTPACISFGPKNRSIGAAAKSQVISNAKNTVQGFKRFHGRAFSDPFVEAEKSNLAYDIVQLPTGLTGIKVTYMEEERNFTTEQVTAMLLSKLKETAESVLKKPVVDCVVSVPCFYTDAERRSVMDATQIAGLNCLRLMNETTAVALAYGIYKQDLPALEEKPRNVVFVDMGHSAYQVSVCAFNRGKLKVLATAFDTTLGGRKFDEVLVNHFCEEFGKKYKLDIKSKIRALLRLSQECEKLKKLMSANASDLPLSIECFMNDVDVSGTMNRGKFLEMCNDLLARVEPPLRSVLEQTKLKKEDIYAVEIVGGATRIPAVKEKISKFFGKELSTTLNADEAVTRGCALQCAILSPAFKVREFSITDVVPYPISLRWNSPAEEGSSDCEVFSKNHAAPFSKVLTFYRKEPFTLEAYYSSPQDLPYPDPAIAQFSVQKVTPQSDGSSSKVKVKVRVNVHGIFSVSSASLVEVHKSEENEEPMETDQNAKEEEKMQVDQEEPHVEEQQQQTPAENKAESEEMETSQAGSKDKKMDQPPQAKKAKVKTSTVDLPIENQLLWQIDREMLNLYIENEGKMIMQDKLEKERNDAKNAVEEYVYEMRDKLSGEYEKFVSEDDRNSFTLKLEDTENWLYEDGEDQPKQVYVDKLAELKNLGQPIKIRFQESEERPKLFEELGKQIQQYMKIISSFKNKEDQYDHLDAADMTKVEKSTNEAMEWMNNKLNLQNKQSLTMDPVVKSKEIEAKIKELTSTCSPIISKPKPKVEPPKEEQKNAEQNGPVDGQGDNPGPQAAEQGTDTAVPSDSDKKLPEMDID | 1.13 | 0.46 | 2.48 |
| TNS3 (protein, UniProt Q68CZ2 1-1445, looked up) Tensin-3: MEEGHGLDLTYITERIIAVSFPAGCSEESYLHNLQEVTRMLKSKHGDNYLVLNLSEKRYDLTKLNPKIMDVGWPELHAPPLDKMCTICKAQESWLNSNLQHVVVIHCRGGKGRIGVVISSYMHFTNVSASADQALDRFAMKKFYDDKVSALMQPSQKRYVQFLSGLLSGSVKMNASPLFLHFVILHGTPNFDTGGVCRPFLKLYQAMQPVYTSGIYNVGPENPSRICIVIEPAQLLKGDVMVKCYHKKYRSATRDVIFRLQFHTGAVQGYGLVFGKEDLDNASKDDRFPDYGKVELVFSATPEKIQGSEHLYNDHGVIVDYNTTDPLIRWDSYENLSADGEVLHTQGPVDGSLYAKVRKKSSSDPGIPGGPQAIPATNSPDHSDHTLSVSSDSGHSTASARTDKTEERLAPGTRRGLSAQEKAELDQLLSGFGLEDPGSSLKEMTDARSKYSGTRHVVPAQVHVNGDAALKDRETDILDDEMPHHDLHSVDSLGTLSSSEGPQSAHLGPFTCHKSSQNSLLSDGFGSNVGEDPQGTLVPDLGLGMDGPYERERTFGSREPKQPQPLLRKPSVSAQMQAYGQSSYSTQTWVRQQQMVVAHQYSFAPDGEARLVSRCPADNPGLVQAQPRVPLTPTRGTSSRVAVQRGVGSGPHPPDTQQPSPSKAFKPRFPGDQVVNGAGPELSTGPSPGSPTLDIDQSIEQLNRLILELDPTFEPIPTHMNALGSQANGSVSPDSVGGGLRASSRLPDTGEGPSRATGRQGSSAEQPLGGRLRKLSLGQYDNDAGGQLPFSKCAWGKAGVDYAPNLPPFPSPADVKETMTPGYPQDLDIIDGRILSSKESMCSTPAFPVSPETPYVKTALRHPPFSPPEPPLSSPASQHKGGREPRSCPETLTHAVGMSESPIGPKSTMLRADASSTPSFQQAFASSCTISSNGPGQRRESSSSAERQWVESSPKPMVSLLGSGRPTGSPLSAEFSGTRKDSPVLSCFPPSELQAPFHSHELSLAEPPDSLAPPSSQAFLGFGTAPVGSGLPPEEDLGALLANSHGASPTPSIPLTATGAADNGFLSHNFLTVAPGHSSHHSPGLQGQGVTLPGQPPLPEKKRASEGDRSLGSVSPSSSGFSSPHSGSTISIPFPNVLPDFSKASEAASPLPDSPGDKLVIVKFVQDTSKFWYKADISREQAIAMLKDKEPGSFIVRDSHSFRGAYGLAMKVATPPPSVLQLNKKAGDLANELVRHFLIECTPKGVRLKGCSNEPYFGSLTALVCQHSITPLALPCKLLIPERDPLEEIAESSPQTAANSAAELLKQGAACNVWYLNSVEMESLTGHQAIQKALSITLVQEPPPVSTVVHFKVSAQGITLTDNQRKLFFRRHYPVNSVIFCALDPQDRKWIKDGPSSKVFGFVARKQGSATDNVCHLFAEHDPEQPASAIVNFVSKVMIGSPKKV | 1.39 | 0.45 | 3.12 |
| LCP2 (protein, UniProt Q13094 1-533, looked up) Lymphocyte cytosolic protein 2: MALRNVPFRSEVLGWDPDSLADYFKKLNYKDCEKAVKKYHIDGARFLNLTENDIQKFPKLRVPILSKLSQEINKNEERRSIFTRKPQVPRFPEETESHEEDNGGWSSFEEDDYESPNDDQDGEDDGDYESPNEEEEAPVEDDADYEPPPSNDEEALQNSILPAKPFPNSNSMYIDRPPSGKTPQQPPVPPQRPMAALPPPPAGRNHSPLPPPQTNHEEPSRSRNHKTAKLPAPSIDRSTKPPLDRSLAPFDREPFTLGKKPPFSDKPSIPAGRSLGEHLPKIQKPPLPPTTERHERSSPLPGKKPPVPKHGWGPDRRENDEDDVHQRPLPQPALLPMSSNTFPSRSTKPSPMNPLPSSHMPGAFSESNSSFPQSASLPPYFSQGPSNRPPIRAEGRNFPLPLPNKPRPPSPAEEENSLNEEWYVSYITRPEAEAALRKINQDGTFLVRDSSKKTTTNPYVLMVLYKDKVYNIQIRYQKESQVYLLGTGLRGKEDFLSVSDIIDYFRKMPLLLIDGKNRGSRYQCTLTHAAGYP | 2.71 | 0.43 | 6.29 |
| DOK1 (protein, UniProt Q99704 1-481, looked up) Docking protein 1: MDGAVMEGPLFLQSQRFGTKRWRKTWAVLYPASPHGVARLEFFDHKGSSSGGGRGSSRRLDCKVIRLAECVSVAPVTVETPPEPGATAFRLDTAQRSHLLAADAPSSAAWVQTLCRNAFPKGSWTLAPTDNPPKLSALEMLENSLYSPTWEGSQFWVTVQRTEAAERCGLHGSYVLRVEAERLTLLTVGAQSQILEPLLSWPYTLLRRYGRDKVMFSFEAGRRCPSGPGTFTFQTAQGNDIFQAVETAIHRQKAQGKAGQGHDVLRADSHEGEVAEGKLPSPPGPQELLDSPPALYAEPLDSLRIAPCPSQDSLYSDPLDSTSAQAGEGVQRKKPLYWDLYEHAQQQLLKAKLTDPKEDPIYDEPEGLAPVPPQGLYDLPREPKDAWWCQARVKEEGYELPYNPATDDYAVPPPRSTKPLLAPKPQGPAFPEPGTATGSGIKSHNSALYSQVQKSGASGSWDCGLSRVGTDKTGVKSEGST | 5.17 | 0.39 | 13.10 |
| ARHGEF7 (protein, UniProt Q14155 1-803, looked up) Rho guanine nucleotide …: MNSAEQTVTWLITLGVLESPKKTISDPEGFLQASLKDGVVLCRLLERLLPGTIEKVYPEPRSESECLSNIREFLRGCGASLRLELLFPPSQPPQHLVTTILLSASTFDANDLYQGQNFNKVLSSLVTLNKVTADIGLGSDSVCARPSSHRIKSFDSLGSQSLHTRTSKLFQGQYRSLDMTDNSNNQLVVRAKFNFQQTNEDELSFSKGDVIHVTRVEEGGWWEGTLNGRTGWFPSNYVREVKASEKPVSPKSGTLKSPPKGFDTTAINKSYYNVVLQNILETENEYSKELQTVLSTYLRPLQTSEKLSSANISYLMGNLEEICSFQQMLVQSLEECTKLPEAQQRVGGCFLNLMPQMKTLYLTYCANHPSAVNVLTEHSEELGEFMETKGASSPGILVLTTGLSKPFMRLDKYPTLLKELERHMEDYHTDRQDIQKSMAAFKNLSAQCQEVRKRKELELQILTEAIRNWEGDDIKTLGNVTYMSQVLIQCAGSEEKNERYLLLFPNVLLMLSASPRMSGFIYQGKLPTTGMTITKLEDSENHRNAFEISGSMIERILVSCNNQQDLQEWVEHLQKQTKVTSVGNPTIKPHSVPSHTLPSHPVTPSSKHADSKPAPLTPAYHTLPHPSHHGTPHTTINWGPLEPPKTPKPWSLSCLRPAPPLRPSAALCYKEDLSKSPKTMKKLLPKRKPERKPSDEEFASRKSTAALEEDAQILKVIEAYCTSAKTRQTLNSTWQGTDLMHNHVLADDDQPSLDSLGRRSSLSRLEPSDLSEDSDYDSIWTAHSYRMGSTSRKSCCSYISHQN | 1.24 | 0.45 | 2.76 |
| GAB1 (protein, UniProt Q13480 2-694, looked up) GRB2-associated-binding …: SGGEVVCSGWLRKSPPEKKLKRYAWKRRWFVLRSGRLTGDPDVLEYYKNDHAKKPIRIIDLNLCQQVDAGLTFNKKEFENSYIFDINTIDRIFYLVADSEEEMNKWVRCICDICGFNPTEEDPVKPPGSSLQAPADLPLAINTAPPSTQADSSSATLPPPYQLINVPPHLETLGIQEDPQDYLLLINCQSKKPEPTRTHADSAKSTSSETDCNDNVPSHKNPASSQSKHGMNGFFQQQMIYDSPPSRAPSASVDSSLYNLPRSYSHDVLPKVSPSSTEADGELYVFNTPSGTSSVETQMRHVSISYDIPPTPGNTYQIPRTFPEGTLGQTSKLDTIPDIPPPRPPKPHPAHDRSPVETCSIPRTASDTDSSYCIPTAGMSPSRSNTISTVDLNKLRKDASSQDCYDIPRAFPSDRSSSLEGFHNHFKVKNVLTVGSVSSEELDENYVPMNPNSPPRQHSSSFTEPIQEANYVPMTPGTFDFSSFGMQVPPPAHMGFRSSPKTPPRRPVPVADCEPPPVDRNLKPDRKVKPAPLEIKPLPEWEELQAPVRSPITRSFARDSSRFPMSPRPDSVHSTTSSSDSHDSEENYVPMNPNLSSEDPNLFGSNSLDGGSSPMIKPKGDKQVEYLDLDLDSGKSTPPRKQKSSGSGSSVADERVDYVVVDQQKTLALKSTREAWTDGRQSTESETPAKSVK | 0.93 | 0.41 | 2.30 |
| JUP (protein, UniProt P14923 1-745, looked up) Junction plakoglobin: MEVMNLMEQPIKVTEWQQTYTYDSGIHSGANTCVPSVSSKGIMEEDEACGRQYTLKKTTTYTQGVPPSQGDLEYQMSTTARAKRVREAMCPGVSGEDSSLLLATQVEGQATNLQRLAEPSQLLKSAIVHLINYQDDAELATRALPELTKLLNDEDPVVVTKAAMIVNQLSKKEASRRALMGSPQLVAAVVRTMQNTSDLDTARCTTSILHNLSHHREGLLAIFKSGGIPALVRMLSSPVESVLFYAITTLHNLLLYQEGAKMAVRLADGLQKMVPLLNKNNPKFLAITTDCLQLLAYGNQESKLIILANGGPQALVQIMRNYSYEKLLWTTSRVLKVLSVCPSNKPAIVEAGGMQALGKHLTSNSPRLVQNCLWTLRNLSDVATKQEGLESVLKILVNQLSVDDVNVLTCATGTLSNLTCNNSKNKTLVTQNSGVEALIHAILRAGDKDDITEPAVCALRHLTSRHPEAEMAQNSVRLNYGIPAIVKLLNQPNQWPLVKATIGLIRNLALCPANHAPLQEAAVIPRLVQLLVKAHQDAQRHVAAGTQQPYTDGVRMEEIVEGCTGALHILARDPMNRMEIFRLNTIPLFVQLLYSSVENIQRVAAGVLCELAQDKEAADAIDAEGASAPLMELLHSRNEGTATYAAAVLFRISEDKNPDYRKRVSVELTNSLFKHDPAAWEAAQSMIPINEPYGDDMDATYRPMYSSDVPLDPLEMHMDMDGDYPIDTYSDGLRPPYPTADHMLA | 0.98 | 0.39 | 2.51 |
